Reference: patent US20090004190A1 (published 2009)

Legend:
[1] = biological target: T1, Amyloid Beta (1-40) from Biosource (UniProt P05067 672-711); experiment: plate ELISA, immobilized ligand, dilutions of fusion protein, absorbance at 405 nm
T1 construct: domain: Amyloid Beta (1-40); Immobilized on Maxisorb plates at 5 micrograms per well; also called Abeta; A-beta
Description: (§1) Known RAGE ligands were coated onto the surface of Maxisorb plates at a concentration of 5 micrograms per well. Plates were incubated at 4° C. overnight. Following ligand incubation, plates were aspirated and a blocking buffer of 1% BSA in 50 mM imidizole buffer (pH 7.2) was added to the plates for 1 hour at room temperature. The plates were then aspirated and/or washed with wash buffer (20 mM Imidizole, 150 mM NaCl, 0.05% Tween-20, 5 mM CaCl₂ and 5 mM MgCl₂, pH 7.2). […] The RAGE fusion protein was added at increasing dilutions of the initial sample. The RAGE fusion protein was allowed to incubate with the immobilized ligand at 37° C. for one hour after which the plate was washed and assayed for binding of the RAGE fusion protein. Binding was detected by the addition of an immunodetection complex containing a monoclonal mouse anti-human IgG1 diluted 1:11,000 to a final assay concentration (FAC) of 21 ng/100 μL, a biotinylated goat anti-mouse IgG diluted 1:500, to a FAC of […], and an avidin-linked alkaline phosphatase. […] Binding of the complex to the immobilized RAGE fusion protein was quantified by measuring conversion of PNPP to para-nitrophenol (PNP) which was measured spectrophotometrically at 405 nm.

BSA = biological target: T2, BSA (UniProt P02769 25-607); experiment: plate ELISA, BSA-only coating, detection with anti-human IgG1 complex, absorbance at 405 nm
T2 construct: Negative control coating; also called BSA coating alone; BSA+wash
Description: as §1

[2] = biological target: T1, Amyloid Beta (1-40) from Biosource; experiment: plate assay, immobilized ligand (A beta=Amyloid beta 1-40), fusion protein 0 to 360 nM, anti-IgG polyclonal antibody with alkaline phosphatase
Description: The ligands are immobilized on a microtiter plate and incubated in the presence of increasing concentrations of RAGE fusion protein from 0 to 360 nM. The RAGE fusion protein-ligand interaction is detected using a polyclonal antibody conjugated with alkaline phosphatase that is specific for the IgG portion of the fusion chimera. […] HMG1B=Ampoterin, CML=Carboxymethyl Lysine, A beta=Amyloid beta 1-40.

T1 sequence (P05067 672-711 limits assumed): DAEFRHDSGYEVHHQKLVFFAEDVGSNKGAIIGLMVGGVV
T2 sequence (P02769 25-607 limits assumed): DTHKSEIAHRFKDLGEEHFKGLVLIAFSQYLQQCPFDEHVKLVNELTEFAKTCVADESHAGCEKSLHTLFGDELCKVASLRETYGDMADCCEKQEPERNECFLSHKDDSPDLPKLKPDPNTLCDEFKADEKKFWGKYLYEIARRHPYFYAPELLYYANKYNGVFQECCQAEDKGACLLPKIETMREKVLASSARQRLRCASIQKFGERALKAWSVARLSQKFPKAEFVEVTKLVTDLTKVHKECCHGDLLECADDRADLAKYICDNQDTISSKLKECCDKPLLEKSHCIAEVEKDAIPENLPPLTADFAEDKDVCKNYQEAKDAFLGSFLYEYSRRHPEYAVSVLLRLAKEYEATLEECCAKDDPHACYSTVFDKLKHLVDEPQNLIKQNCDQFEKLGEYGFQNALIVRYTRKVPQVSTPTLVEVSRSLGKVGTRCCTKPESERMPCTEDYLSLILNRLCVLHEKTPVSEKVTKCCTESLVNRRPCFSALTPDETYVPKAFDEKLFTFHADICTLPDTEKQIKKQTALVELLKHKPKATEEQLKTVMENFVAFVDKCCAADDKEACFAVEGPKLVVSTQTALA

binding result [1] | binding result (BSA) | binding result [2] | Binder
binds | no binding | – | RAGE fusion protein TTP-3000 (Fc fusion, also called TT3; three domain RAGE fusion protein) QNITARIGEPLVLKCKGAPKKPPQRLEWKLNTGRTEAWKVLSPQGGGPWDSVARVLPNGSLFLPAVGIQDEGIFRCQAMNRNGKETKSNYRVRVYQIPGKPEIVDSASELTAGPSVFLFPPKPKDTLMISRTPEVTCVVVDVSHEDPEVKFNWYVDGVEVHNAKTKPREEQYNSTYRVVSVLTVLHQDWLNGKEYKCKVSNKALPAPIEKTISKAKGQPREPQVYTLPPSRDELTKNQVSLTCLVKGFYPSDIAVEWESNGQPENNYKTTPPVLDSDGSFFLYSKLTVDKSRWQQGNVFSCSVMHEALHNHYTQKSLSLSPGK
– | no binding | binds | RAGE fusion protein TTP-4000 (Fc fusion, N-terminal residue glutamine (Q) or pyroglutamic acid (pE) or a mixture thereof; glycosylation sites at N2 and N288 (numbering of SEQ ID NO: 34 or 56); C-terminal residue of CH3 may be cleaved off, No immunoglobulin hinge; Made in CHO cells, purified on Protein A; also called TT4; four domain RAGE fusion protein) QNITARIGEPLVLKCKGAPKKPPQRLEWKLNTGRTEAWKVLSPQGGGPWDSVARVLPNGSLFLPAVGIQDEGIFRCQAMNRNGKETKSNYRVRVYQIPGKPEIVDSASELTAGVPNKVGTCVSEGSYPAGTLSWHLDGKPLVPNEKGVSVKEQTRRHPETGLFTLQSELMVTPARGGDPRPTFSCSFSPGLPRHRALRTAPIQPRVWEPVPLEEVQLVVEPEGGAVAPPSVFLFPPKPKDTLMISRTPEVTCVVVDVSHEDPEVKFNWYVDGVEVHNAKTKPREEQYNSTYRVVSVLTVLHQDWLNGKEYKCKVSNKALPAPIEKTISKAKGQPREPQVYTLPPSRDELTKNQVSLTCLVKGFYPSDIAVEWESNGQPENNYKTTPPVLDSDGSFFLYSKLTVDKSRWQQGNVFSCSVMHEALHNHYTQKSLSLSPGK
